Measurements taken from article PMC8693174.

Assays:
Assay in all cases: potentiometry
Details in all cases: 25 °C; I = 0.1 M (KNO3); samples in 96 mM KNO3/4 mM HNO3; none (96 mM KNO3/4 mM HNO3); Free peptide, no metal, under argon
[1] = molecular target: Asp3 (position 3, ---RHDSG---)
[2] = molecular target: His2 (position 2, ----RHDSG--)
[3] = molecular target: Nterm1 (position 1, -----RHDSG-)

B1: Amyloid-beta 5-9 peptide (Abeta5-9), Arg-His-Asp-Ser-Gly-NH2 (Homo sapiens (synthetic peptide)) (peptide)
chain: RHDSG
pKa [1]: 3.17
pKa [2]: 6.13
pKa [3]: 7.37
